{"source": "the DeepSol protein solubility set"}
{"test": "soluble on expression in E. coli; label from the status in PepcDB or PDB records"}
{"sequence": "MNPIHDRTSDYHKYLKVKQGDSDLFKLTVSDKRYIWYNPDPKERDSYECGEIVSETSDSFTFKTVDGQDRQVKKDDANQRNPIKFDGVEDMSELSYLNEPAVFHNLRVRYNQDLIYTYSGLFLVAVNPFKRIPIYTQEMVDIFKGRRRNEVAPHIFAISDVAYRSMLDDRQNQSLLITGESGAGKTENTKKVIQYLASVAGRNQANGSGVLEQQILQANPILEAFGNAKTTRNNNSSRFGKFIEIQFNNAGFISGASIQSYLLEKSRVVFQSETERNYHIFYQLLAGATAEEKKALHLAGPESFNYLNQSGCVDIKGVSDSEEFKITRQAMDIVGFSQEEQMSIFKIIAGILHLGNIKFEKGAGEGAVLKDKTALNAASTVFGVNPSVLEKALMEPRILAGRDLVAQHLNVEKSSSSRDALVKALYGRLFLWLVKKINNVLCQERKAYFIGVLDISGFEIFKVNSFEQLCINYTNEKLQQFFNHHMFKVEQEEYLKEKINWTFIDFGLDSQATIDLIDGRQPPGILALLDEQSVFPNATDNTLITKLHSHFSKKNAKYEEPRFSKTEFGVTHYAGQVMYEIQDWLEKNKDPLQQDLELCFKDSSDNVVTKLFNDPNIASRAKKGANFITVAAQYKEQLASLMATLETTNPHFVRCIIPNNKQLPAKLEDKVVLDQLRCNGVLEGIRITRKGFPNRIIYADFVKRYYLLAPNVPRDAEDSQKATDAVLKHLNIDPEQYRFGITKIFFRAGQLARIEEAREPN", "soluble on expression in E. coli": "soluble"}
{"sequence": "MNPILAMLKENNISNEQINELFQTLTQNPLAAMATLAQLGLPQDKMQMVLAQVMQNPALIKQAVEELGLDFAKVEAAKAKLQQ", "soluble on expression in E. coli": "not soluble"}
{"sequence": "MNPIVKAPTLNDLPAPPPGKTGWPWTEQNEALPEKMPDGSDWPKISIVTPSYNYGQFIEETIRSVLLQGYPNLEYIVVDGGSTDNTVTIIRKYEKYLKYWASEPDHGQTDAINKGYRYCSGDVFAWLNADDLYYDQSTLLKVINFYQKGYDLIVGECLNINADGTHFNQAITSTEKSDPTYFKKYLRYWSSGFLPQPAIFVKKEMADQCFPLSIELYYAMDFQFFLRVLNQEPKSVWIQEKLTRLRWHEDSKTMGTISRIDFHAIVPEPEVHKVALAEAENLPTWLEKIFFRIQAFDYLSLQPYINSLDNFHWLQITKTIVKRPTLAVWPLFWKIFFRSLLGEQIYKLLKRTIRTNLEHHHHHH", "soluble on expression in E. coli": "not soluble"}
{"sequence": "MNQEKIADLKNWMHQEKIDFTYISDPGHIAYFSGYESEPHERVLALFIAADDQSFLFTPALEVEDAEKSSWTYPVYGYLDSENPWEKIAALLNKRTQGTPRFALEKQALSLARFDQLKTYFPASDFSHDVTPLIEKLQLIKTEPEIQRLLEAGSWADVAFEIGFKAIQAGVAEQEIVAEIEYQLKRQGIRSMSFDTLVLTGKNGASPHGVPGETKIEPHDLVLFDLGVVHNGYCSDATRTVSYLEPSDFQKEIYGIVLEAQLAATEAVKPGVTAGELDDIARGVITKAGYGEYFNHRLGHGIGTTVHEYPSLVHGNDLVIEEGMCFSIEPGIYIPGKVGVRIEDCLHVTKTGSEPFTKTTKELQIIQ", "soluble on expression in E. coli": "not soluble"}
{"sequence": "MNQKIYWDELKEGEQFSYGHYQVSEHENIDFAKRYDPMEFHVDPEKAKLSPIGALCASGIHTLGIMQRLTFDNIYTNWHIVAGRELRKCQFRLPVFVDDCLTVNMTIAKLSVDTRSDRGNAELTFDVKNAKGKTVLEVEGEIVLQRFPSILEHHHHHH", "soluble on expression in E. coli": "not soluble"}
{"sequence": "MNQLLKTLRDFGLSSYEASAYVALVSSGETTAREVSRKAGIPRTKVYEVLNRLVEKGFAEVQPGSPAIFRAIEPAKIAARMQRDFNERLGKMLKAFEELKMDEKSESKLVWISRGRWAVENRLREFLRENDKVMVFCITENFASVLSEVRGEHRVLLYQKFRVPENIREFRVLDLGRIKKAKDGFVARFAEIIEGTEAGKPEILIISEGSSILALSHGEEYLALSIHLPLIVALQKRMFDTLYESYC", "soluble on expression in E. coli": "not soluble"}
{"sequence": "MNRDIGKNAERELVSILRGEGFNAVRIPTSNSSPNPLPDIFATKGNTLLSIECKSTWENKVKVKEHQVRKLLDFLSMFTMKGVPLIAIKFKQVHEWRVLVPEKAEDIIVTIDNSIPIEDLFKILEKRIEEKILTP", "soluble on expression in E. coli": "soluble"}
{"sequence": "MNRGVIVTGGGHGIGKQICLDFLEAGDKVCFIDIDEKRSADFAKERPNLFYFHGDVADPLTLKKFVEYAMEKLQRIDVLVNNACRGSKGILSSLLYEEFDYILSVGLKAPYELSRLCRDELIKNKGRIINIASTRAFQSEPDSEAYASAKGGIVALTHALAMSLGPDVLVNCIAPGWINVTEQQEFTQEDCAAIPAGKVGTPKDISNMVLFLCQQDFITGETIIVDGGMSKRMIYHGDWNWFYKIDK", "soluble on expression in E. coli": "soluble"}
{"sequence": "MNRIYLYLLIVLILAGCSSPGGRYDMSDDQAPDTPLSVEHIEDAHPQYEPYSFGGNKDYNLRGKSYRIIKNPKGFTESGKASWYGKKFHGHLTSNGEIYDMYSMTAAHKTLPIPSYVKVTNTDNGKSTVVRVNDRGPFHDGRIIDLSYAAAYKIGVVQAGTANVRIEVITVDKPTKPRPKSKNNALEYVIQVVSSQHIERVRTLAQNLGQNLSAPSFVESTNNTHRLFLGPFTDDDLTQTLLEQVKSAGYDSAFIKTINKRAK", "soluble on expression in E. coli": "not soluble"}
{"sequence": "MNSAHRSSLKKRPGPQDDRRVSFASPVSSSQKTAAVTVAAQTKQPAKAKNLRTMHSTPKKSKPAHDVADIISLVSKQSDILDDVSEIEHKMIKQAKMTQDLTMELANSIERIANMALAESKLSDQMEKQSKKLISLEGKTKELVEKANNWSKTLENRVDARSHHSTCLNDVQAAIKIINNAKINNDGFSEDFSAHYDKLLDLVETLEPWADKL", "soluble on expression in E. coli": "soluble"}
{"sequence": "MNSNANNTPIAIGISQVFPCSYLDGQQEQLLVIQEETLDPILFERLLAIGFRRSGSAIYKPRCPRCSACQPIRVPIQEFVPSKRQKRTLAHNRDLTWRITTEHTETQYALYEKYIRERHFDGPMYPPSKAQYEQFLFCHWLPPTFIEVYDDNRLVAVAVTDTLPNSFSAIYSYFDPDEERRSLGVLLILLQCRLAKLQGKAFLYLGYQIDANRKMSYKRLYRPYQILTHQGWEYSQVCLEHHHHHH", "soluble on expression in E. coli": "not soluble"}
{"sequence": "MNSNEDIHEERIEVPRTPHQTQPEKDSDRIALRDEISVPEGDEKAYSDEKVEMATTNASSNFGSNESAKDGESIGAFSNPHEALMQSKLREESQSKTILPSDDLSQQLETEESKVEEALKRITSPPLPPRADCIEESASALKSSLPPVLAGNKNDQAPLDRPQLPPRQVVNAETLHLKAPHGNATPSKSPTSAVGNSSSSTPPTLPPRRIEDPLDLAAQKHFLASTFKRNMLFYKSEDNSIKCDLDKNILNLKEDSKKINNNEIPEEVSSFWLKVIGDYQNILINDIETLHFQLSRGIPAAYRLVVWQLVSYAKSKSFDPIYETYLTEMAPFDVQEFENQLKMMDEVPSEYVKRISNVLKAYLLFDPECEFSTDIAYIINMILDVCEEEANAFGLLVRLMKVYGLRLLFLPSASEIDILCYKFDRLVEEFYPEIHNHMVEKGVRSSMFLPGFFTTLFQKKLPTEIQPRIGDMVFLEGIDSIMRILATLLSNSRDHLLKMGFDDMLELLKSGLLDAYIKQNDGTRGDTLLSNECMDKLLQDSMMKVAITPKTMKKYSSEYEEIHRLDNEKEVQYKSITEKNLHLQKHVRKLENDYTSLNREHVTIANELVKNRLNIESVLNENNGYKLQILDLKKKLDSEKKKQVLGVYVPNDLKKDLEETMKKNTQVMDENLKLQDRISELERLIEEIKTANKNGTLFEYSNSKNNPLGAGWSGFKKVFK", "soluble on expression in E. coli": "soluble"}
{"sequence": "MNSSTENVTLKLKSEQLDIAKQWIQTEDVKAYKETSSIQKTFTIPVEREELVIEKIPTASDDKKEVIRIPLSEEEVNFSKHRIILEDVSIYKNQIEDVRHIEETLKKENPKIETFGNAKVIKKLEHHHHHH", "soluble on expression in E. coli": "not soluble"}
{"sequence": "MNSVSEPVPSHGKKPPKNVLAEHGGWKILRILLVSTYKDFRNERRAVLDLVENKLQPIASEKHVILQVEDFSWGSKAHLEEASSLYLIERLCREAVSSSSYFYLHFLGECSGYILDPNFTDQSFLRQHSISTGQSFSEVFLQLSGLQNEKSLFLYRNPSFHQELPFNVTHFIDGPVNRERAKYLTTMVRGEAPASKFIEYSVRTSGINNIHFKHIMFDELSGITKPIEAMVGKYLEKLPDGEAGIPSVEEFMNEYYSQLHVNQTIMSKIEYNLKSHKSILLVGDYCTGKTSILHRIQWKYRDAVIVQAKEKMSAIELRRAIEAKTNVILHDVEQKVVRYLLVDDIHLNFCENFKVKITLSQILQNFNCFAQIFSLLKQIFINFFQASKEAQQYLIGNEELVIVATSRKKKLEVDMNRIIIPHLEPEDILDELSFWLNGGEKEKSGVPSVKASNILKMSQQKRRRSIGTVEDGHQPDENIGWNSLKCRVIGTLGRIGSSDEKCAQLAQLSTLSVVEADMCLMESDGKGHLLIATLCYLTIVESGLNEMELRSLLILEYNLLPIAIRRNYKNLPFDYCPDEFGTTSCTQTLPLRWYFVLHRLGHLFMKIDGDSNHFVLPSACRRVVFKKYLKHPHNLEHFKKNFKEFLTNFSGKEWNRNRQIKMYL", "soluble on expression in E. coli": "not soluble"}
{"sequence": "MNTEICSILERQARIFNVQKYSLYDGPGIRTLIFFKGCPLRCKWCSNPEGLERKYQVMYMEDSCIHCGNCIPVCPVNIHSFANRDGETVPTHYEPPKHTINRNIDCVGCRKCETICPKKALSIAGKDLKISEVLEIIQQDALFYLSSGGGVTLGGGEVTAQPEFATNLLMECQRMGINTAIETCGYAKLDTLLMIAQFTDLFLYDLKHIDPERHYELTGVRNERILDNLTELIHRGFNIKIRMPLIRGMNDSQDTIRRTMEFLQPFSSCKNFQGIDLLPYHKLGINKYKQLDMNYTITEDLSFKAEELDEIARIIGGYDLRAAVIRH", "soluble on expression in E. coli": "not soluble"}
{"sequence": "MNTVPFTSAPIEVTIGIDQYSFNVKENQPFHGIKDIPIGHVHVIHFQHADNSSMRYGYWFDCRMGNFYIQYDPKDGLYKMMEERDGAKFENIVHNFKERQMMVSYPKIDEDDTWYNLTEFVQMDKIRKIVRKDENQFSYVDSSMTTVQENELLKSSLQKAGSKMEAKNEDDPAHSLNYTVINFKSREAIRPGHEMEDFLDKSYYLNTVMLQGIFKNSSNYFGELQFAFLNAMFFGNYGSSLQWHAMIELICSSATVPKHMLDKLDEILYYQIKTLPEQYSDILLNERVWNICLYSSFQKNSLHNTEKIMENKYPELLGKDNEDDALIYGISDEERDDEDDEHNPTIVGGLYYQRP", "soluble on expression in E. coli": "soluble"}
{"sequence": "MNTYFDIPHRLVGKALYESYYDHFGQMDILSDGSLYLIYRRATEHVGGSDGRVVFSKLEGGIWSAPTIVAQAGGQDFRDVAGGTMPSGRIVAASTVYETGEVKVYVSDDSGVTWVHKFTLARGGADYNFAHGKSFQVGARYVIPLYAATGVNYELKWLESSDGGETWGEGSTIYSGNTPYNETSYLPVGDGVILAVARVGSGAGGALRQFISLDDGGTWTDQGNVTAQNGDSTDILVAPSLSYIYSEGGTPHVVLLYTNRTTHFCYYRTILLARAVAGSSGWTERVPAYSAPAASGYTSQVVLGGRRILGNLFRETSSTTSGAYQFEVYLGGVPDFESDWFSVSSNSLYTLSHGLQRSPRRVVVEFARSSSPSTWNIVMPSYFNDGGHKGSGAQVEVGSLNIRLGTGAAVWGTGYFGGIDNSATTRLATGYYRVRAWI", "soluble on expression in E. coli": "soluble"}
{"sequence": "MNVGDVVKGEVLAIDDDKQVIVGIQGTGVEGVVPLKELSTQRVDDVNEAAKVGDVLDLVVISRIGSDKENGSYLLSHRRLEARKVWDDVEKEYEAGHTIKAPVTQVVKGGLVVDAGVRGFIPASMIDDHYVEDLNAYKGQELELKIIEIEPSENRLILSHRAVVEKQREALEHHHHHH", "soluble on expression in E. coli": "soluble"}
